Values of other authors as cited in publication PMC8625536.

Target: Glu89 (UniProt position 105, IDALNENKVLV)
Details: Native folded protein; EF loop closed-to-open (Tanford) transition

## beta-lactoglobulin (called BBL in the article) (Bos taurus)
  pKa: ~7.3
